For 13 sequences, protein production results are on record in a protein production outcome set (Wang et al. 2014).

A short description of the data set: label from the status in PepcDB records.
Take “MRGPAVLLTVALATLLAPGAGAPVQSQGSQNKLLLVSFDGFRWNYDQDVDTPNLDAMARDGVKARYMTPAFVTMTSPCHFTLVTGKYIENHGVVHNMYYNTTSKVKLPYHATLGIQRWWDNGSVPIWITAQRQGLRAGSFFYPGGNVTYQGVAVTRSRKEGIAHNYKNETEWRANIDTVMAWFTEEDLDLVTLYFGEPDSTGHRYGPESPERREMVRQVDRTVGYLRESIARNHLTDRLNLIITSDHGMTTVDKRAGDLVEFHKFPNFTFRDIEFELLDYGPNGMLLPKEGRLEKVYDALKDAHPKLHVYKKEAFPEAFHYANNPRVTPLLMYSDLGYVIHGRINVQFNNGEHGFDNKDMDMKTIFRAVGPSFRAGLEVEPFESVHVYELMCRLLGIVPEANDGHLATLLPMLHTESALPPDGRPTLLPKGRSALPPSSRPLLVMGLLGTVILLSEVA”: the protein production entry is “failed”.
As to “MRGRIMSTFTTISSDKLARLIGTANAPVLIDVRTEEDFAADRRLIPGSIRLSHENVPDWGAAFAGRSVIVSCLRGAKLAQGTAAWLRQLGVQAETLDGGFEGWKEAKLPLLDTRKLPPRDAKGRTVWVTRARPKVDRIACPWLIRRFVDPNAVFLYVAPSEVVAVGERFNAAPFDIENVFWSHRGELCTFDVMIEEFGIATPALLRLATLVRGADTARPDLAPEAPGLLAASLGLSRMYDDDLEQLEAGLLLYDAFYRWCRDATAETHNWPTNKVKA”, the protein production result was “failed”.
“MRGTTDEEDGVMNFSDVLMMSDDVLSSGEVEEDSFGFRFTGNDAPQMLCFGGGNQNDTDLLFSQPSFSPASPLSSRNNACVVNDQSFRSNKKTGSADGHDRVCDPKPGKRCKRDQKKSSLGNAKDDEDTGEVNPTMKVKELRSNGLCLVPLAWTVHVANTNGADLWSSAILSPLTSHTNSEPVEIVEVKSHKDK”: the protein production entry was “failed”.
As to “MRGVRLLAVIGLVLGGLVLSGRPAQAQYAQDSLAFDLEHVFDLEYAADPQISPSGDRVVYARTVMDKMDDRRASRLWAVNADGSGHRPITAPETNASQPRWSPSGDRVAYVASTEGDGAEVFVRWMDTGQTARITQLEESPSGLSWGPEGDRLAFSMFVPAEPEPFARMPSPPEGADWAERPDVIDQTYYRSDGGGYTERGHTQLFVVSASGGTPRQITTGPYDHGGAPTWTPDGETLLISANRHADRRLDPLNTEVYAVDVASGAVTALTTRQGPDGDVALSPDGSTIAYTGFDDREQGYQVTKLYVMDRDGTNARLLTEGFDRDVQNPTFTADGEHIVFRYVDEGSTKIGRVALDGGRRVVAEHVGGTSIGRPYTSGSFSLASNGRVAFTHATPQRPADVAVAQAGREAQVLTALNDDLFGQVDLGSVEQITYESSHDGRTIEGWIVTPPGFDASQEYPLVLEIHGGPFASYGPYFSAEVQLYAAAGYVVLYTNPRGSTSYGQDFGNAIHHDYPGHDYDDLMSGVDAVLERGYVDADRLYVTGGSGGGVLTSWIVGHTDRFRAAVAAKPVINWYSWALTADMYPYGVKYWFPGLPWNHEEHYMDRSPLSYVDNVTTPTMLLTGANDYRTPMSESEQFYQALKLREVETALVRVPGASHSIAARPSHLAAKAAHVLEWFRRHGGPTPEQ”, the protein production result was “failed”.
Regarding “MRGVYRVMVKVYIENYGCARNRADGEIMAALLYLSGHEIVESPEESEIVVVNSCAVKDPTERKIARRIRELLDNGKKVIVTGCLPHVNPDVIDERVSAILGVKSIDRIVQAVEYAMRGEKLISVPDWKKRNLDKLDFPRLSPRNVYFILPIAEGCLNACTYCATRLARGVLKSYSPEKIIGWVKWAIKQGYKEIWLSAEDTGCYGFDIGTNLAKLIDEITAIEGEFRIRVGMMNPNHVLKFLDELIDAYKDEKVYKFLHLPVQSGDNEILRKMGRMYTVEEFEEIVKAFRREFPELNLHTDIIVGFPGESEEAFQRSVELIKRIRPDKVNVSRYSPRPGTIAAKWKQLPGWVVKERSRLLHRIRLQISYEINRKYIGKKVKVLIHGEGKKGNVDAVTMNYKHIILPEGRKGEFREARVKNAASTYLLGEIIT”, the protein production entry was “failed”.
For the sequence “MRHFRVFLRKPKRITSAAQPLETGSSGLHFSAVNPRQAPASFFPSLRRFTVRLTAARQDQLVSYFFTCFKGVSMSQSVMKKSVLRILPGLLCLALPLSSCSSSKSPKATMTATPVELRYREATEKIAKRKYNDAIVILESLMFSTRATALEDDVLKALADSYYKKKEYILAADTYRRLLQQTPDSPYARDAQFMLAKSYEKLSPFHELDQEYTVKAINEFETYLDQYPSDDSAQAANDLELYKNLMKVNPDNASYREKYEAAKEELASGSPARYSQKAISELRERLAHNRFSIARQYFKLKKYRAAEIFYDVVINQYPDTKWLESAWIGKIDSEIKQNNWFEARQSIETFQQLYPDKAKLIEPAAKRVTAHYSNKRDPKSKE”, the protein production entry is listed as “failed”.
In the case of “MRHPYVFPACVAGALLVAGCAPKQTDEETVERAFQDVNVVDETNLSEVMLTVTDPNEAISYYQRTLKSDPDRLDLRRGLATSFVRAKRFTEAASAWEKVTELKDSTHEDSVNYADALIRSGDWDTAEKVLDTVPPTYETFKRYRLEAMMADANKEWRKADSFYETAIGLTTTPAGAFNNWGYSKLTRGDFSGAEKLFGQAIRQDPTLFTAKNNLVLARSAQRKYTLPVVPMTQSERAQLLHTMALSAVRQGDIQTSKSLLRDAIDTHPQHFDAAVRALEALERSG” it was “failed”; in that of “MRICLFLCLCLCMASPALAQVAVFPALSGKTDAQTLVVYSSLDEPLATPMIEGFQKANPDIAVHYEDMLTGEIYDRIVKETDAGKKTADFAFSSAMDLQVKLSNDGYAQRSDLAMSARWPAWANWRNTAYALTFEPAVFVYHKPSFTTEKPPATRAEFVDYLERHAKEVHGRIATYDIERSGVGFLFMSRDQEQFGDIWSVIKAMGAAGVKVYSTSSAILERVSDGRFVLGYNILGSYAADWASRHPDVGIVLPKDYTVVMSRIGLVPEAAANPELGRRYLEFFMSKEGQTIMARQLQIPAVSPEVAGENTANTMQAIHGAQLRPVPVSPGLMVYLDQVKRSRLIERWNEALRSQ”, “failed”.
For “MRIDVESQNINVTSLKEAPIHLSGQIQPHGVLLVLEEPGLKILQVSNNTWGILGINAENILQKKLEDLLDSFQIERIQSGLSSGNLEFINPTKIWIRKKGDDYAVFDAVFHRNTEGFLILELEPAITQENIPFLSFYHLAKASINQLQKTANLRDFCQIIVQEVRKVTDFDRVMLYKFDDDGHGSVIAEEKLDSLEPYLGLHYPESDIPKPARKLFISNSIRVIPNAQAQAIQMIPALNPVSDRPVDLTNSILRSAANCHLEYLHNMGVGASLTISLIKDNKLWGLIACHHLSAKYVSYELRKACEFLGRVIFAEISAREETEDYDYRMNLTHIQSLLVEYMSQEDNFVDGLIKHQPSLLDLTSAQGAAVCFGDHCTLIGETPKAEDLVFLVQWLKNNVEEEVFYTDSLPQVYPDAERYKNVASGLLAIPISQRNYVLWFRPEVIQTVNWGGDPNQPFEVNKLDGNVRLCPRKSFELWKETVRLTSLPWRYVEIRAALELRKAIVNIVLRQADELAQLAHDLERSNAELKKFAYVASHDLQEPLNQVANYVQLLEMRYQDQLDADANEFITFAVEGVSLMQTLIDDVLAYSKVDTQAIAFQLTEVEKALDKALGNLRQRIAETGANITHDPLPTVMAGSTQLMQLFQNLIANAIKFRSEEAPQIHIGAERLEDEWLFSVRDNGIGIDPQFSDRIFVIFQRLHTRDEYHGTGMGLAICKKIIECHRGRIWVESQLGEGATFYFTIPVGGRERERRNGRKTQNNLFS”, the protein production entry was “failed”.
For the sequence “MRIFKLSPDEEERFFDNLPRFLFYYLFLFTIFWFGLTQKSAEEIRESILSGNVSPDFWRSTLVVLLLLAITDAYLMRKGDTNWNTPGAALFMLFGFFIMLLVVMYVGRASILFVVSLFLIYINTLIKTKEELRKKNH”, the protein production result is on record as “failed”.
For “MRIGGTTSPIASHSFYVATRGYMDKTQSEEKNRRPLAVRDLNFTKRIAVWLSQKQITPNQISLMSIAFALLGCAILAVYHYYPAPLWLILAALSIQARLLCNLFDGMVAVEGGKKTPAGELFNDVPDRIADPLLILGAGFVTTSALGMTLAWLCALLAVLTAYIRVLGVSIGGEADFQGPMAKQHRMALLTLSLLFIAALSLFDELPTFFAYTMDLTLIVMLIGLVLTVWRRLQHIYQFHAARASSSDHQGN”, the protein production entry is on record as “failed”.
Regarding “MRIHRLDIEAFGPFATPQHIDFDHLSAQGLFLLNGATGAGKTSILDAICFALYGSVPGARQEGKRLRSDHAAPGAEPRVVCEFSARGRRFEVTRSPAWDRPSARGRNGFTTQQAKTLLRERVAGSWEEKSSRNDEVGAELSDVLGMDREQFTRVVMLPQGDFAAFLRSKANDRLELLQKLFGTQRFEAVERQLVHQAAEAARAVQENASELKLLLDRVASEQDQLGLPAADTSAAGTEPGQEPEAWLAGVEAEVEAEWKRRQNEAAEAESLSSRLMEHFQEAQEKSQRHGRLGAAMQRRVLLELAAPRALENKEMLGKHRRAAVLSGQLEAVDSAARKLHTASARAAGLREKLDAAGLDAAKPTIALETVKASCAVLEARLPEEQRLEGITVRLAARRGELAEHLSAAEAAATVVDQLREEVSAVELEIQPLEPLADQLAEREREATAAAELVGIVARHATAASELDVITGKHLHARSASQDLRQKWLDVRELRLANAAGELAAALESGKPCAVCGSEEHPNPAQAVRTALSLAQEEEEARERFEASERALGLLAEQVSSAAQVLAGLVAQGGSADAAAAESTLADARAAALAARTAEASLEKLRVRHEALIKRIVLAQEEHDASVGAAAQASAAVHVLQEQCVALETDLAGLRGDFSSLRDRLEALEAERGLLQAAVDADRELERAEQARQDAAASLDKALSESGFASADDARREILSPADVVGLEKDLADFDAESSRLDELFGSEDLVLAAKEASIGEHPLGEAELAESKLHAANAADDARAKALSAGLAGKSAAAVARFRTEYQSLAQAGREPRNRAQMLAELADTVRGSGDNSYRMSLNAYVLAARLEQVATAASERLVAMSDGRYTLQHTDAKAARGAKSGLGLEVVDEWTGQRRDTSTLSGGESFMASLSLALGLADVVQQEAGGVDIETLFVDEGFGSLDDQALEQVMDALEGLRDGGRVVGLVSHVGEMKQRITNQLQVVKGRHGSSVRIAEAGPV”, the protein production result was “failed”.
“MRIHSPYPASWALAQRIGYLYSEGEIIYLADTPFERLLDIQRQVGQCQTMTSLSQADFEARLEAVFHQNTGESQQIAQDIDQSVDLLSLSEEMPANEDLLNEDSAAPVIRLINAILSEAIKETASDIHIETYEKTMSIRFRIDGVLRTILQPNKKLAALLISRIKVMARLDIAEKRIPQDGRISLRIGRRNIDVRVSTLPSIYGERAVLRLLDKNSLQLSLNNLGMTAADKQDLENLIQLPHGIILVTGPTGSGKSTTLYAILSALNTPGRNILTVEDPVEYELEGIGQTQVNTRVDMSFARGLRAILRQDPDVVMVGEIRDTETAQIAVQASLTGHLVLSTLHTNSASGAVTRLRDMGVESFLLSSSLAGIIAQRLVRRLCPQCRQFTPVSPQQAQMFKYHQLAVTTIGTPVGCPHCHQSGYQGRMAIHEMMVVTPELRAAIHENVDEQALERLVRQQHKALIKNGLQKVISGDTSWDEVMRVASATLESEA”: the protein production entry is “failed”.
